Results on nine molecules are retold here after patent US20260216242A1 (ALMAC DISCOVERY, published 2026).

The target in test [1] is T1, human ALPI on CHO cells (human, UniProt P09923 20-503).
T1 construct: whole, on cells; also called CHO-ALPI
T1 sequence (looked up): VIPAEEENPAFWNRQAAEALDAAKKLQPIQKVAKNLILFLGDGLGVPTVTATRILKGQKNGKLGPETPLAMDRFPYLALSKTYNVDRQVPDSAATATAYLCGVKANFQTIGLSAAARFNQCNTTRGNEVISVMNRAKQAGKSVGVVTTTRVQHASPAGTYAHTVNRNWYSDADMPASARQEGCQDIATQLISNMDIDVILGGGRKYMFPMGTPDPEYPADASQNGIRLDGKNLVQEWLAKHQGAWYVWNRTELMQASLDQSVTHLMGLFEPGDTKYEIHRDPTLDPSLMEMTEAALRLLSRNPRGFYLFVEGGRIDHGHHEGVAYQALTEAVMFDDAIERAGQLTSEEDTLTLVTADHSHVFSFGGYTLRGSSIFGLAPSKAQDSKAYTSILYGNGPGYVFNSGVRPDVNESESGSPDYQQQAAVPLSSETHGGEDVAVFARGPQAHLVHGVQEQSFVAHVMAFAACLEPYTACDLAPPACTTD
The test can be described thus: flow cytometry, CHO cells stably expressing human ALPI; His6-tagged VHH detected with anti-His tag Ab and FITC anti-mouse Ab. The method, then: (§1) C-terminal His tagged VHH proteins were assessed for ALPP, ALPPL2, ALPI and ALPL cell-surface binding by flow cytometry. Binders encompassing different epitope bins were screened on CHO cells stably expressing ALPP, ALPPL2, ALPI or ALPL. High levels of cell-surface proteins expression were confirmed for each of the cell-lines by flow cytometry.
(§2) Cell surface binding of test agents to hALPP isoforms was characterized in four CHO-ALPP isoform stably transfected cell lines (CHO-ALPP, CHO-ALPPL2, CHO-ALPI and CHO-ALPL) and the resulting KDapp values determined. Adherent cells were detached from tissue culture flasks by incubating with 0.1% EDTA/PBS solution at 37° C. for ~10 minutes or until cells detached easily. Cells were re-suspended in ice-cold PBS/2% FCS in 15 ml tubes and centrifuged at 1700 rpm for 5 mins at 4° C. Supernatant was removed and the cell pellet re-suspended in PBS/2% FCS. […] Cells were incubated with 100 μl of test agents at a range of concentrations, plus controls for 1 hr on ice. The sample plate was centrifuged at 1700 rpm for 5 mins at 4° C. The supernatant was removed, and a wash performed by re-suspending the cell pellets in 0.25 mL of ice-cold PBS/2% FCS using a multichannel pipette. Samples were again centrifuged at 1700 rpm for 5 min at 4° C. Supernatant was removed and two further washes performed as described. After the final wash and centrifugation step, excess liquid was removed by blotting the plate on tissue paper. Binding of VHH (His6 tagged) agents was determined by adding 100 μl of anti-x6His tag Ab (Abcam) per cell pellet sample as appropriate and incubating on ice for 30 mins. Wash steps were performed as described previously. Fitc-anti-mouse antibody (ThermoFisher) was used to detect binding of the VHH (His6 tagged) agents by incubating with the appropriate samples for 30 min on ice in the dark. Wash steps were performed as described previously. All cell pellets were finally re-suspended in […] of ice-cold PBS/2% FCS and left on ice in the dark prior to analysis on a Merck-Millipore Guava EasyCyte HT or Thermo Fisher Attune N×T flow cytometer.
(In general: In flow cytometry, cells or beads pass a laser one at a time.)

Test [2] has as its target T2, human ALPL on CHO cells (human, UniProt P05186 18-501).
T2 construct: whole, on cells; also called CHO-ALPL
T2 sequence (looked up): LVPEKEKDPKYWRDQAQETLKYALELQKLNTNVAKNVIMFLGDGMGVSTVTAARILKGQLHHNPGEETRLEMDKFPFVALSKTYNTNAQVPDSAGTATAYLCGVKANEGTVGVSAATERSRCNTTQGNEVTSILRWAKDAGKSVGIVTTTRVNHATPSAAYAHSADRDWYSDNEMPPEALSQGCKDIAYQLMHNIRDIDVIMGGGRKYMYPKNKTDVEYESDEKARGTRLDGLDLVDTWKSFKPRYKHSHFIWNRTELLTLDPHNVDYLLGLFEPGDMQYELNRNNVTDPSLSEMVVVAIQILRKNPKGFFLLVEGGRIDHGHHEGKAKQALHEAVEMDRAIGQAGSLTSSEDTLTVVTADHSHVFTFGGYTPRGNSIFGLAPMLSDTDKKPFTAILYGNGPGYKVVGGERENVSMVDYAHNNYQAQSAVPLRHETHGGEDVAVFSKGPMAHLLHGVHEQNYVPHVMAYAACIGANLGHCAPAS
In words: flow cytometry, CHO cells stably expressing human ALPL; His6-tagged VHH detected with anti-His tag Ab and FITC anti-mouse Ab. The method, then:
as §1, §2

The target of test [3] is T3, ALPI His homodimer (human, UniProt P09923 20-503).
T3 construct: Whole entry with His tag; used in ELISA and BLI; also called hALPI
T3 sequence: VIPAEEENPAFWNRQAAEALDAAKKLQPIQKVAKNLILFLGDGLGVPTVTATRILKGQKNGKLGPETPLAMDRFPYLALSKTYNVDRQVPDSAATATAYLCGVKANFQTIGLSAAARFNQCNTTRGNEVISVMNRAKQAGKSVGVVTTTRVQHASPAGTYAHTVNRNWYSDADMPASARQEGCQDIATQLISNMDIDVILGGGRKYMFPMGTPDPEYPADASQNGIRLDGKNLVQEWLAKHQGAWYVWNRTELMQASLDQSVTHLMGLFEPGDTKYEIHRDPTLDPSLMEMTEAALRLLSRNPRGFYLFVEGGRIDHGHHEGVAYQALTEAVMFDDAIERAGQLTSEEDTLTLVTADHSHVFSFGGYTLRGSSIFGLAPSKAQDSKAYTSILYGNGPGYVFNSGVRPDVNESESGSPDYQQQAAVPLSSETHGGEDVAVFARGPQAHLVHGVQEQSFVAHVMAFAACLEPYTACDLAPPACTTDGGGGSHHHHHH
The test can be described thus: ELISA, antigen coated. The source says: ELISA was used to test the binding and specificity of the VHHs. […] Anti-Llama—HRP antibody was used for detection.

The target of test [4] is T1, human ALPI on CHO cells. In words: flow cytometry, CHO cells, 350 nM. The procedure: as §2
For test [5], the target named is T4, human ALPP on CHO cells (human, UniProt P05187 23-506).
T4 construct: whole, on cells; also called CHO-ALPP
The test can be described thus: flow cytometry, CHO cells, 350 nM. The method, then: as §2

T4 sequence (P05187 23-506): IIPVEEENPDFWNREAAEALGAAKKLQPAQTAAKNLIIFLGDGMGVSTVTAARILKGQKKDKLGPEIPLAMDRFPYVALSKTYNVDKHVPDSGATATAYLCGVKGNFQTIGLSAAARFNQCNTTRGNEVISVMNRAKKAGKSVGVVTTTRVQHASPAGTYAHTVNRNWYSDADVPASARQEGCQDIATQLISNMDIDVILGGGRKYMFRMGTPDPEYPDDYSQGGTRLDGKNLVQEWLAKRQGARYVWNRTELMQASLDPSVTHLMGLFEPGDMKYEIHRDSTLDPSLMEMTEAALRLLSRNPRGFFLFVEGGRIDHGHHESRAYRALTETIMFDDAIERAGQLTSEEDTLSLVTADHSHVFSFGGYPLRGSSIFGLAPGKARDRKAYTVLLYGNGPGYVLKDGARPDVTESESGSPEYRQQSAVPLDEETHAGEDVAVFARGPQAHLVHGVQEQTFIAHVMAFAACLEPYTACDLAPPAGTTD

B1: D10 His (VHH, not shown: small tags and cut ends)
VHH: QVQLVESGGGLVQPGGSLRLSCAASGSIFSVNTMGWYRQAPGKQRDLVAVATSGGTIHYADSVKGRFTISRDNAKNTVYLQMNSLKPEDTAVYYCNLVVPYGMIAGDHDYWGQGTKVTVSS
As to B1, the results for the binding result in test [1], in test [2] and in test [3] were “no binding (tested: 350 nM)”, “no binding (tested: 350 nM)” and “no binding (tested: 500 ng VHH)”, respectively.

B2: A05 His (VHH, not shown: small tags and cut ends)
VHH: QVQLVESGGGLVQAGASLTLSCAASGFTFNTRSIVWFRQAPGKEREAVSCISKVAGSTYYGDSVQGRFSSSTDNAKNTVSLQMNSLKPEDTAVYTCAASFAPNCYGWSVAANMEYWGEGTMVTVSS
notes: also called #249
Turning to B2, the binding result in test [1] is “no binding (tested: 350 nM)”; in test [2], “no binding (tested: 350 nM)”; in test [3] it was “no binding (tested: 500 ng VHH)”.

B3: E06 His (VHH, not shown: small tags and cut ends)
VHH: QVHLVESGGGLVQAGGSLRLSCAASRRSFSEYAMGWFRQAPGKEREFVAAIGWSGVIEYADSVKGRFTISRDNAKDTVYLQMNSLKPEDTAVYYCAAGLGIRVVSQTPAYWGQGTQVTVSS
Consider B3, for which the binding result is listed as “no binding (tested: 350 nM)” in test [1], “no binding (tested: 350 nM)” in test [2] and “no binding (tested: 500 ng VHH)” in test [3].

B4: D04 His (VHH, not shown: small tags and cut ends)
VHH: QVQLVESGGGLVQPGGSLRLSCAASESTFSINVMGWYRQAPGKQRELVATITSGDITNYADSVKGRFTISRDNAENTVYLRTNSLKPEDTAVYYCNARGEYHSGNEYDYWGQGTQVTVSS
In the case of B4, the binding result in test [2] is “no binding (tested: 350 nM)”. Besides, the values for the MFI in test [4] and in test [5] were 629 MFI and 6650 MFI, respectively.

B5: F08 His (VHH, not shown: small tags and cut ends)
VHH: QVQLVESGGGSVQAGGSLRLSCAASGPSLSNYAMGWFRQAPGKEREFVAGISWGGGRTSYTDSVKGRFTISRDNAKNTVYLQMNNLKPEDTGVYYCAGRYGRGRNVEYEYDYWGQGTQVTVSS
notes: also called #269
Turning to B5, the binding result in test [2] was “no binding (tested: 350 nM)”. Further, in test [4], the MFI worked out at 99 MFI and the “fold lower MFI for ALPI binding versus ALPP” value came out at 75 fold. In test [5], this molecule showed an MFI of 7370 MFI.

B6: C07 His (VHH, not shown: small tags and cut ends)
VHH: QVQLVESGGGLVQAGESLRLACAASGTIFSGNAVGWYRQAPEKQREWVSSITDYGDTDYAEAVKGRFTISRDNAKNTVYLQMNSLKPEDTAVYYCYVYQRGESEEYWGQGTQVTVSS
notes: also called #258
For B6, the binding result in test [1] is given as “no binding (tested: 350 nM)”; in test [2], “no binding (tested: 350 nM)”; in test [3], “no binding (tested: 500 ng VHH)”.

B7: E10 His (VHH, not shown: small tags and cut ends)
VHH: QVQLVESGGGLVQAGGSLRLSCAVSGRALSDYNIGWFRQAPGKEREFVARKTWDGSSTRYDDSVKGRFTVSIEDAKNTAYLQMSSLKTEDTAVYYCAAGRYSRARGWEYDYWGQGTQVTVSS
notes: also called #265
On to B7, for which the results for the binding result in test [1], in test [2] and in test [3] were “no binding (tested: 350 nM)”, “no binding (tested: 350 nM)” and “no binding (tested: 500 ng VHH)”, respectively.

B8: F05 His (VHH, not shown: small tags and cut ends)
VHH: QVQLVESGGGLVQAGGSLRLSCAASGRAFGDYNIGWFRQAPGKEREFVARRTWDGSSTRYDDSVKGRFTVSIDNAKNTAYLQMNSLKTEDTAVYYCAAGRYSRVRGWEYDYWGQGTQVTVSS
With B8, the binding result in test [1] is “no binding (tested: 350 nM)”; in test [2], “no binding (tested: 350 nM)”; in test [3], “no binding (tested: 500 ng VHH)”.

B9: A06 His (VHH, not shown: small tags and cut ends)
VHH: QVHLVESGGGLVQAGGSLRLSCAASGRTFLSMGWFRQAPGKEREFVAAISWTGGSTGYADSVKGRFTISRESDKETMYLQMNSLKPEDTAVYYCAARGDVYYGGDDATRYKYWGQGTQVTVSS
notes: also called #250
With B9, the binding result in test [1] was “no binding (tested: 350 nM)”; in test [2] it was “no binding (tested: 350 nM)”; in test [3], “no binding (tested: 500 ng VHH)”.
